Molecular target: the molecule itself
Assay: cryo-EM structure

B1: Arf1-GTP (natural protein)
chain: not shown
Q: With B1 as the protein, how does the “stoichiometry N” value read?
A: 3

— article doi:10.1101/276733 (bioRxiv, 2018)
